Literature values in article PMC5386376.

Molecular target: Egl1 (Caenorhabditis elegans) (UniProt O61667)
Sequence (O61667 whole entry): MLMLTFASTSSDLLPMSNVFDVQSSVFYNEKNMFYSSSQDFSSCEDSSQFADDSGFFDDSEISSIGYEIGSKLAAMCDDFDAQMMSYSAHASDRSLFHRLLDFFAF

Bcl-2, sequence (P10415 whole entry): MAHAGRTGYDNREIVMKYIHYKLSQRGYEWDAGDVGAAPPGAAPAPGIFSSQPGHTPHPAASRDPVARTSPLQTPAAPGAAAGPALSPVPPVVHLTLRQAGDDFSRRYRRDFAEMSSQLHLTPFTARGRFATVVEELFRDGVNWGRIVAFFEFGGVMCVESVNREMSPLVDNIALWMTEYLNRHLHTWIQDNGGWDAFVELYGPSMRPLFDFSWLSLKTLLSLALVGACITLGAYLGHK

Bcl-2 (from UniProt P10415)
Kd: 7.1 µM
